From a protein production outcome set (Wang et al. 2014) come the findings set out here.

The data set can be described thus: label from the status in PepcDB records.

For the sequence “METRAHHVLIGLFTVIVVAGALLFGLWLAKSSVDSAFQDYQIVFNEAVSGLSKGSSVQYSGIKVGDVVNLRLDPKDPRRVLAQIRLGSETPIKEDTQAKLALTGITGTSIIQLSGGTPQSPTLKGKDGELPTIIASPSPIARLLNNSNDLMTGVNLLLHNANRMFSPDNVARVSSTLDNLQKTSASIAEQRDDLRQLMQQLGSISKQTGAMLEQTTALMRNANGLLNDQGKQMFGSAEHAMRSLEQSSATLNKLLSDNQDSLNNGMQGLNGLAPAVRELRETLSSLRAITRRLEANPGGYLLGNEKNKEFTPLEHHHHHH”, the protein production result is recorded as “not failed”.

“METSLISPMKENNTAQPQQREENTQQNLNAAVPIKQQSPGLLPEALEVGVKPDPASQILATQEIENPVAGFEGDSDKFHISTDEMAEHLQASDLWYCPDGSFVKKIIVHGHGLDKPKLGSKCRVLALGFPFGSGMPEGWTELTIGTGQWREKTWGELTEKCLESMRQGEEAKIHLPGSSTPLAKLRLDSFTNGRDSWELEAVEKEALAKEEHRRGTELFRAGNPQGAARCYGRALRLLLTLPPPGPPERTILHANLAACQLLLGHPQLAAQSCDRVLEREPGHLKALYRRGVAQAALGDLDKATADLKKVLAVDPKNRAAKEELGKVVIQGKIQDAGLARGLRKMFS”: the protein production result was “failed”.

Consider “METWITSIMADFGYIGIFLLIMIENLFPPIPSEIILTFGGFMTTVSSLNVVMVIIVATLGSVVGAILLYKVASYFGKERLTHIVLKYGRVLRLKESDIERAESFFLKYGSWAVFLCRMIPLIRSLISIPAGMTKMKMSRFLILTTAGSLLWNTVLIGLGALLGESWGEIVVFMDSFSTVIYSIIAVITLLGLGFFFRARFKKTLDEE”, for which the protein production result was “failed”.

In the case of “MEVAPSFSSVLKDCAVIEGQDFVLQCSVRGTPVPRITWLLNGQPIQYARSTCEAGVAELHIQDALPEDHGTYTCLAENALGQVSCSAWVTVH”, the protein production entry is on record as “not failed”.

For “MEVFKVFATLSLVDMISGPLGSVSEGMELLGGKVSALGSRMGKLAVAMAPVALAAGVLLGTLGLAAREAIAFESAMADVAKVVNFESAGELKAMSATILDMSTRIPMAADGLAAIVAAAAQSGVARQDLTDFAEQAAKMGVAFDLTGDQAGKMMADWRAGMNLTLPRVYALADATNHLSNNMNATAPALGEVIQRVGAVGMAAGLSETQVAALGAAFLSAGASPEIASTALKKFTSTLVRGSALSKDAQAAFGALGFSVTQMAKDMQTDAQGTIFKVLQALADKPKELQMSLLTEMFGEEALGAIAPLLANMGNLSQAFDLVGDSAAYAGSMQGEFEARSRTTENALLLLGNKAKALMIVIGSYFLPVIGAVADALGGFVDMLRAAAQTAGGEFALKLVAGVSAAIVAATALSGALWLLSAAGPMLAAALAPLKAALLGLSWPMWAIIAVVGALYLAYKTNFAGIGDTLRRWWQTVSLVVRGVMAVFSTLTDGVGEIRGELATEIRAAGLEGLVASVGSVVYRVQAFFRGLWDGVSGVGDRLAVVFGPTLDRLGAVFGQLFTVLGGLGEAFFGVSAASDVSGWERFGNVIGSVVCGAVEILATAFTALLAPIEMAAGMLQFVLDLFNGVSLFDAGAKLLGTFVDGIMSMVSAPFEAAKKALDMVGKLLPHSDADEGPLSTLTASGMATLSTMGEGMTAAAPGLHDTLETALGDAVAPQIEAPATADVQPGRKTARAAQGRGVTITIGTLNLPGVTNAQDFVAQLQDFVAAYDGVPEGGLV”, the protein production result is “failed”.

As to “MEVFLKEFLLNKFFIDFFYKNQNNITIKTILVTFKVIFSICFNSSNFGLRYSKKKTLNLSELMHLVTFMLAYFLIQV”, the protein production result is listed as “failed”.

Regarding “MEVKIEKPTPEKLKELSVEKWPIWEKEVSEFDWYYDTNETCYILEGKVEVTTEDGKKYVIEKGDLVTFPKGLRCRWKVLEPVRKHYNLF”, the protein production result is “not failed”.

In the case of “MEVKVQSDDLEYVVSTVRSYINSYETDVNPLYIRFYFFESDNPLLDENFDEIRKILVPSGYIPAVIKGPENYIEVTRRPKENYRSIYVNIIMLVLTLLSTVYVGSIYAASFVRPGPYYEFYKLLYGFVFFSLPLMFILGIHETAHYLVARRYRVNASLPFFIPFPYIIGTFGAFVSLRDPIPDRKAMTEIGAAGPIAGFLASIPLMFLAQYFEKVIKPVNNVIPFQLNYPLIYKLFGIFEPVKVPVFPMVFAVWVGIFATAMNLIPAGQLDGGHIVRGLLGSRAYILNYIFLGFLFYLAIVYNYLGWLFLALFVIFLGLVHPPALNDYARIKMRDVFIGIFCLLMFIITFTPLPIKP”, the protein production result is “failed”.

With “MEVLRYRSRPIVGGEAEGPAVVIDSLSFYGEVDPETGVTSGGKPLAGRVAAIRRSRGSTVGSYVIYALKENGVAPLAILMERAEPIVIAGCVLAGIPLYDGLPPEFFERVRDGYRVRVHSDGLVEVLGPGQP”, the protein production result was “failed”.

Turning to “MEVQETRVQTDRVLTIPNILSMARLVGVPVFLWLILRPEFGGPKSDGWALLVLALSGISDYLDGKLARRWNQISSLGRLLDPAADRLYILSTLVGLTWREILPIWLTAALLARELVLLVMVGILRRHGYPPPQVNFLGKAATFNLMYAFPLLLLSDSSGWIGSLAAIFGWAFAGWGTTLYWWAGVLYMVQVRRLVRADAVAD”, the protein production result is on record as “failed”.

For the sequence “MEVSRALLFELGVLLAVLAVLGAVARRFALSPIPVYLLAGLSLGNGGILGVAAAGEFIATGAPIGVVLLLLALGLEFSATEFASSLRHHLPSAGVDIVLNATPGAVAGWLLGLDGVAILGLAGVTYISSSGVIARLLEDLRRLGNRETPAVLSVLVLEDFAMAAYLPLFAVLATDGSWLEAVVGMTVAIAALLGAFAASYRWGHHVGRLVTHPDSEQLLLRVLGITLIVAAVAESLHASAAVGAFLVGLTLTGETADRARMVLTPLRDLFATIFFLGIGLSVDPGKLVSMLPVALALAAVTAATKVATGMFAARREGVARRGQLRAGTALVARGEFSLIIIGLAGASIPGVAALATAYVFVMAIVGPILARYTGGGLPAAAVASN”, the protein production result is “failed”.

For “MEVVRIPEFKEKTAPGAYYQQPAIDGSRPGRFYANLFDIKATPKYGMRTLAYHEGIPGHHFQVAVAMELEGQPLIRKMAPFTAYIEGWALYSERVAWELGFQQDPFDNIGRLQAELFRAVRLVVDTGIHHSRWTREQAIDYMKKNTGMSDRDVTAEIERYIVMPGQATAYKVGMMKILELREKAKQALGDKFDLRDFHDVVLKNGAVPLDILEKLVDRYIADKR”, the protein production entry is “failed”.

As for “MEWLNEPPNWSHSDQKIIVTTSPKTDFWRITHYGFIRDSGHFYFDRVSTDFVVDVKIKGNYKDLYDQAGIMIRADEQHWIKTGIEYVDGVQNLSAVVTHNYSDWSFTPLLNPPNIFQVRVERCQEAIHIAYLDEYSRYVPFRMAYFPVALDIQVGIMCASPQGNGYEVIFEDYQLTKKGEKLSLEHHHHHH”, the protein production entry is reported as “failed”.

In the case of “MEWQAEQAYNHLPPLPLDSKLAELAETLPILKACIPARAALAELKQAGELLPNQGLLINLLPLLEAQGSSEIENIVTTTDKLFQYAQEDSQADPMTKEALRYRTALYQCFTQLSNRPLCVTTALEICSTIKSVQMDVRKVPGTSLTNQATGEVIYTPPAGESVIRDLLSNWEAFLHNQDDVDPLIKMAMAHYQFEAIHPFIDGNGRTGRVLNILYLIDQQLLSAPILYLSRYIVAHKQDYYRLLLNVTTQQEWQPWIIFILNAVEQTAKWTTHKIAAARELIAHTTEYVRQQLPKIYSHELVQVIFEQPYCRIQNLVESGLAKRQTASVYLKQLCDIGVLEEVQSGKEKLFVHPKFVTLMTKDSNQFSRYAL”, the protein production result is reported as “not failed”.

As for “MEYELLIREAEPKDAAELVAFLNRVSLETDFTSLDGDGILLTSEEMEIFLNKQASSDNQITLLAFLNGKIAGIVNITADQRKRVRHIGDLFIVIGKRYWNNGLGSLLLEEAIEWAQASGILRRLQLTVQTRNQAAVHLYQKHGFVIEGSQERGAYIEEGKFIDVYLMGKLIG”, the protein production entry is on record as “not failed”.

As for “MEYFLPLISIVTISYNAVNLIEKTILSVVEQDTADFEYIVIDGGSTDGTVEVIRKYENAISYWVSESDKGIFDAMNKALSVAKGDWVIFMNSGDCFYNNHVLSEIAIYMKDEETELIYGDVNLFSGKRNFIFKQRVSGININLNSVCHQTVFIRRKLHPYFDVRYKLTADHDIIFDFIKRGQYIHANIVIAKVLLGGVSHDVIKTSLEKLLISYRKGTFMDLLLSPLCNIYQVIKYFVKKLLISALPIELFNKMSRMKSKMESNFLEHHHHHH”, the protein production entry is given as “not failed”.
